assay: label from the status in PepcDB records

Which protein production does the source give for “MKEQSITKGFAILSIASIVAKLLSLIYVPFLTRIVGSVGMGIYGKTYDIFVFVYALTNVGLQTAISKYVSELDAVGNYKDALRAFKISRAFLLVVGTIFTIVLMLSANFIASMSQTPQMVYPIIFLAPTIMITTVLVTYKGYFQGRSQATPIAIATVIEQVANVFLSLLCAYFLIKKSVSLGVAGGTVGSSAGALMAVLYLIYIYNIYGVEKEAKRKQEPGVRRITGKKIARTLFKYGLPITLSTGLQNLGNIIDMLTVSNRLVDAANFSQSDANALYGYFSTRYKILINVPMVFITSLGYMALPAISRAYALKDKKEIKSKINFSMRVTYLLSIPSAFGLALLSENIYRYIFADSNGYKMMVIGAAMIPLTAIVLMQNVILQSVSQFYYVLFTLALSIVVKFTLNMTLVANPDINIYGAVISGMVAFVISLVLNHFRMKKTLKMKISMLKYALKPLLASIYMGIGIILSKYVISLFIDFDKLSLILGIAILLVIIAIGAFMYLHAIIILGGIKKEDIEEISPKLLRVMPRFLRKNIK” here?
Its protein production is “failed”.

For “MKETTKKIVSKRLTKVVALVLMCVICTSGVITVTALSRDVTVLDGDKMYGLTTLNANPDAVLDRLGIEVSPEDSIEFDEAAAKITIKRAFDVTVEVDGKAKTVTMTEGTVADALEASKVDLKEGDQVVPFAATSLVPDMEIKVARGVEVTVEADGKSVKVKVPVTATVEAAVAAADFTVGKDDVLSAEKTDTVSAGMTIKLDRVSYRETETTQEIPYESTQEETGELDLGDTQVKTAGENGARTIVTREKLVNGQVVETEEISSTVVKEPVNEVLLVGTREVETAPSYGAASTSGGVLVDHDGNQIAYTAVYTGSATAYTAPAGSFTATGRPAQYGNVAVNPDLIPYGSRLYICSPDGSYVYGYAVAADTGGALMSGSALVDVYFDTLSECYGFGRRTLSVYILA”, which protein production is on record?
Its protein production is “failed”.

With “MKFALQINEGPYQHQASDSAYQFAKAALEKGHEIFRVFFYHDGVNNSTRLTTPPQDDRHIVNRWAELAEQYELDMVVCVAAAQRRGIVDEGEASRNGKDATNIHPKFRISGLGQLVEAAIQADRLVVFGD” as the sequence, how does the protein production read?
Its protein production is “not failed”.

Which protein production does the source give for “MKFDDSKPIYKQIVHYIHTEIVTGTYEAGDKLLSVRELATKLEVNPTTIQRAYAELEEAGIIFTVRGTGKYLTEDKRRIEQLENHIAKQLTENFISEMSKLGINKEKIIAWVKKVEEVEVNASGK” here?
The protein production was “failed”.

Which protein production does the source give for “MKFDVIIIGGSYAGLSAALQLGRARKNILLVDAGERRNRFASHSHGFLGQDGKAPGEIIAEARRQIERYPTIHWVEGRVTDAKGSFGEFIVEIDGGRRETAGRLILAMGVTDELPEIAGLRERWGSAVFHCPYCHGYELDQGKIGVIAASPMAIHHALMLPDWGETTFFTNGIVEPDADQHALLAARGVRVETTRIREIAGHADVVLADGRSIALAGLFTQPKLRITVDWIEKLGCAVEEGPMGSTIVTDPMKQTTARGIFACGDVARPAGSVALAVGDGAMAGAAAHRSILFPEMR” here?
The protein production was “not failed”.

Which protein production does the source give for “MKFFFLLQIALILLSNSSLLFGQSPPKEKEDSLLLYKEGKFKEAILNTLEEIRLNPSNLDARTILIWSLIAIGEYKRAEKEAIIGLGIKKHDIRIIQALGEAYFFQKNYDNALKYFQEYISLDSKGARIIKVYNLIADSFYELKRYNEADFAYEHALRFSPNNQNLLIKLARSRINAKNKILAEEALIKILTISPNNLEAKNLLEELKKSNNKP” here?
The protein production was “failed”.

For “MKFGPRRPADAIGGVTVHSLRQNGLLLKKGTTIGPAEVAALEKAGIAEIVVVQLEPGDVSEDVAAADVAGAVAGDGITVDRAFTGRANLFAGRTGVLVIDRAVVDRINAVDEAITLATLPAFKPVVEGEMVATVKLIPFGVESRLRDAAVAAAQGSALRVAPYVIKRVGVVSTLLPGLAPKVIDKTLRVTAERLAPAGAEIIAERRVAHEEAALSAAIKELLGLGADMVIVFGASAIADRRDVIPAAIGTVGGTISHFGMPVDPGNLLLVGSVSGVPVLGAPGCARSPVENGFDWVLMRLLAGLTVTRADITAMGVGGLLMEIVTRPQPRVPVAESGRNVAAIVLAAGRGTRMGGPNKLLADLNGKPLVRIVAEQALASQAARTIIVTGHQAGEVEAALYGLDLTFVHNPDFAQGIASSVKTGIAALGEDADGAIVCLGDMPLIDAALIDRMITAFDPDRGALIVVPVAEGRRGNPVLWSRRFFTELMTLGGDVGARHLIAKHGEAVTEVPVEGEAAFLDIDTPQALDEARRG”, which protein production is on record?
Its protein production is “failed”.

Which protein production does the source give for “MKFISTSLLLMLLVSSLSPVQGVLEVYYTSLRCRCVQESSVFIPRRFIDRIQILPRGNGCPRKEIIVWKKNKSIVCVDPQAEWIQRMMEVLRKRSSSTLPVPVFKRKIP” here?
Its protein production is “failed”.

For “MKFKTNKLSLNLVLASSLLAASIPAFAVTGDTDQPIHIESDQQSLDMQGNVVTFTGNVIVTQGTIKINADKVVVTRPGGEQGKEVIDGYGKPATFYQMQDNGKPVEGHASQMHYELAKDFVVLTGNAYLQQVDSNIKGDKITYLVKEQKMQAFSDKGKRVTTVLVPSQLQDKNNKGQTPAQKKGN”, which protein production is on record?
The protein production was “not failed”.

For “MKFLDNIKKNQSLMRFIETTQSHMVTAEIGNSSVVVAYYLLLSLFPLLIAVGNVLPYLRIDPNSVLPYIAEAIPKDVYKNLEPAIRSLLTQRSGGLLSVSALAAFWSASQSINALQNAMNKAFGVEQRKNFILVRVVSFLVILLFMVAIVGVVVILGLGQYIIELLQPIFHYSTSVIDTFQALKWPLTTVVLLVIMCLIYAVVPNRKLSLRSILPGAIFSTVGWMLLSQIFGLYVKYFSSRIASYQIIGSFIILMLWLNFAATIIILGAIVNAVVDEYLSGDKEKKQPSFEQRLFRWFKKKK”, which protein production is on record?
The protein production was “failed”.

Which protein production does the source give for “MKFSFHTCESNYFKDPFFYIMLSISILFSYLFSYYTILKYVSLNATAYDLGIYVSILENTMHGHVMYANPLLINSFSEHFSPFLFVIYPIYWFFPYVKTLLIMQSVMISFSGLVIYLLAREIFFINNFKKDILLEMLALFISTSYILSPYIESPLSFDFHLMPFLILFVPLSFYFFMKKYKILNLIVLILIISLHSLFVIMVFFIISYQFIFRIRNEGNLNCHKIIRTIANINISDNLKKTPKSKYVLQKIVRSKTLIKIIITLILLVGYLYFASLMKTFIASGAVALSPPSTMSTGSVSSSLAGLFTDLFTRPMLIESAFLINFPDKIIFAFYAFANTGFLVFLDPLSLLMDIPYFLYAYLSSYGPYYSLGYQYSTMIIPFIFIGALFGIRKIVQSARATDSDDVRRTIKKILVGVISIVIVSSLFELPLDPISPRNIFIESGSMANFHEFAYNNGSEIAFELQKEIGESDPYLLTINNLYPVFAKDTNAYVIAFAWNSQLRNLIYGYHIEYLVNQPDSFWSNQFNPSMNDLIDNNTFISHYGVYMESFGQDGVIVYKLNYTGLPVLMIPYSAYLPATSFYIAAGEYNYSIVNGSYVYHNTTMGTAWFGPYTTLLPGRYNITYYLESVNSEANSSILLDVTTNAGTVTLNQTVINSSELPNGDLEEVTLHLTLNETKYSVEFRGMAIDWTGTLIFKGVKYSVY” here?
The protein production was “failed”.

Which protein production does the source give for “MKFSVLMSLYVKEQPAFLAECLASLTAQSYPADEIVILYDGKVTAELEVVVQQYAPILPLKQVRFAENRGLGNTLNDGLKYCSHEWVFRMDSDDICDVDRFAKQVAFIQQHPDVVVFGGQIAEFGQNVQDIVAYRAVPTTHQQIVKFSRFRCPFNHMTVAYQKSKVLAVGGYQGLQEDYTLWIKMIASGFLTANLTDVLVYARVGNGMVGRRRNFTQFKYEWQLYRLKTQAKLHSRIVGLGIFALRAIPRILPLAILQRIYKLLRK” here?
Its protein production is “failed”.

Which protein production does the source give for “MKFSYKFSNLLGTIYRNGNLVFTPDGNSVISPVGNRITVYDLKNNKSRTLSLESRYNYTNIALSPDGSLLIAVNEKGEAQLISMMSCTVIHRHKFQTGVQCICFSPNGAFFAVAVQNVVLIFCAPGEITGEYNPFVLRRRFLGGFDDVTWLDWSSDSRLLAIGCRDSSTKIVAINYTKNFRTYNLSGHTDAIVACFFEANSLHLNTISRNGQLCLWECSLAPSDLEDAERPKIAPPQRKKEKKAVSDNESEDDVENVVEKDALKEESTKEAEDVNHIKNEDETKSHPFFYKKITRHYLADEPRKEQRDVQLTAANYNTRTKVLVVAFSSGAFYLYELPDVNMIHSLSISDYPISAALFNCTGDWVALASREIGQLLVWEWQSEQYIMKQQGHSSEMTCIAYSSDGQFIATGGEDSKVKLWNTQSSFCFVTFSEHTSGVTGIQFSRNKKFLVSSSLDGTVRAFDVNRYRNFRTFTSPNPAQFSCVAVDYSGELVVAGGQDVFDIFLWSVKTGKLLEIISGHEGPVVSIAFSPVATSSTLVSGSWDKTVKIWNCLESNSEHETIDAVSDVTNVTFSPSGEEIAVATLSGNITIFDIKSAGQVTTIEGRNDLSAGRLETDIITARKNAQANYFSTIEYSADGECILAAGKSANICIYHVREAILLKKFEITQNHSLDGLNDFISRKHLSEFGNMALVEEREELEGGRVAIRLPGVQRGDMSSRRFQQEVRVFSVKFSPTGQAFAAAGTEGLCIYALDKGVVFDPFDLSLEVTPKAVHESLKQQNYTKALVMSLKLNEPNLIALVLERVPYKDVELVCADLSPEFAQRLLQQLARQLQSTPHIEFYLQWSCCLLTKHGNQDGVFQHTGLLALHEVLSRKYEMLNKICDYNKYTLKVLLDRADKLEQKNEGKPNATEEDSDEEMLLIRSKDDENGQAQFSDEEESDSGSEEEMA” here?
The protein production was “failed”.

With “MKFWRPGITGKLFLAIFATCIVLLISMHWAVRISFERGFIDYIKHGNEQRLQLLSDALGEQYAQHGNWRFLRNNDRFVFQILRSFEHDNSEDKPGPGMPPHGWRTQFWVVDQNNKVLVGPRAPIPPDGTRRPILVNGAEVGAVIASPVERLTRNTDINFDKQQRQTSWLIVALATLLAALATFLLARGLLAPVKRLVDGTHKLAAGDFTTRVTPTSEDELGKLAQDFNQLASTLEKNQQMRRDFMADISHELRTPLAVLRGELEAIQDGVRKFTPETVASLQAEVGTLTKLVDDLHQLSMSDEGALAYQKAPVDLIPLLEVAGGAFRERFASRGLKLQFSLPDSITVFGDRDRLMQLFNNLLENSLRYTDSGGSLQISAGQRDKTVRLTFADSAPGVSDDQLQKLFERFYRTEVPATVPAGSGLGLAICLNIVEAHNGRIIAAHSPFGGVSITVELPLERDLQREV” as the sequence, how does the protein production read?
Its protein production is “failed”.

With “MKFYIIRHAKVNMRWPKKCTSDEFNQACKKYDGADIVAFQGSLELPVSNIYTSELIRTKQTAQQLFPLQSYQIDKRLNEVPLKAAFSSKIKLPLIFWNILGRLQWLFNSSKQEGIKASKERAEKFCDDLIYKGEDAILITHGFFMITLLKELKKRGFIEKDNGFNFDNLQVIEVKKRLLVY” as the sequence, how does the protein production read?
Its protein production is “failed”.

Which protein production does the source give for “MKGDRERQADLSPREGPSVPRPVLLQTEPRSVFPGDTSRPWSPAALPARAPGDRWCGRRRRSPGNASYLDSDISEKSRSASEEEKSHALGACHCAENAFQDSQKSLVPSRGQKMTSGTKAKVPLTALSQKWKRDREQTLEAAYVPVVVDPRGQNPDTSIRFSFYNSQYSNSLNPFYTLQKPTCGYLYQRETDHTRKRFDVPPANLILWRT” here?
The protein production was “failed”.

With “MKGNALCTGEPVMTIETRGGGSEDIAVLPLDPTGNITRLFIRERCNDSSDPECKTGQWRLGSVDISRENTPASTRYAWRPGNNASEDDFEPLGMSLVPGNTPGEGTLFVIDIARPQSVRIWQLDISGGEITKATLATPADTQTGARLTAANSLQAVRNDDSRSFHLTITRFDEYGLLPFRPTPWPALVRINNGVIQPPPAQDFRNANGIIRPCAGCDLVIASYWERRLRFVSKENGEIGEYASAELPIRPDNLRLDGERILIAGQRRVDLTALNLLVSPHIPSPSGVYAIDTRSLGPDTVPTLLWEGGWKHGHSVATAVALPGNRLAIGQINTPGILIADCSPLEHHHHHH” as the sequence, how does the protein production read?
The protein production was “failed”.

Which protein production does the source give for “MKGSLIVIVFFCVGCIMGVFNKFQFDTHTVSMYILYALMLQVGISIGSNKNLKAIISHLHPKMLLIPLGTITGTLLFSALASILLSQWSVFDCMAVGSGFAYYSLSSILITQFKEPTIGIQLATELGTIALLTNIFREMMALLGTPLIKKYFGKLAPISAAGVNSMDVLLPSISRYSGKEMIPIAILHGILIDISVPVFVSFFCNL” here?
Its protein production is “failed”.

Which protein production does the source give for “MKHAKDIKVHKFNGPVKNDGKISVLVLGADKASGGKSRSDSIMVVQYDYIHKKMKMMSVMRDIYAEIPGYQNYKINAAYSLGGPELLRKTLNKNLGINPEYYAVIDFTGFEKMIDELEPNGVPMDVEKDMSENIGVSLKKGHHRLNGKELLGYARFRHDEEGDFGRVRRQQQVMQTLKKELVTPSSVIKLPKVAGILRGYINTSMPNSAIFQTGISYGIRGDKNVESLTVPINNSYQNINTNNDGSALEIDKEKNKKAVKEFLNNLEHHHHHH” here?
Its protein production is “failed”.
